Molecular target: human NRP1 protein (human, UniProt O14786 22-644)
Assay: ELISA

Chain of human NRP1 protein (O14786 other isoform, or with tags, fused parts or gaps): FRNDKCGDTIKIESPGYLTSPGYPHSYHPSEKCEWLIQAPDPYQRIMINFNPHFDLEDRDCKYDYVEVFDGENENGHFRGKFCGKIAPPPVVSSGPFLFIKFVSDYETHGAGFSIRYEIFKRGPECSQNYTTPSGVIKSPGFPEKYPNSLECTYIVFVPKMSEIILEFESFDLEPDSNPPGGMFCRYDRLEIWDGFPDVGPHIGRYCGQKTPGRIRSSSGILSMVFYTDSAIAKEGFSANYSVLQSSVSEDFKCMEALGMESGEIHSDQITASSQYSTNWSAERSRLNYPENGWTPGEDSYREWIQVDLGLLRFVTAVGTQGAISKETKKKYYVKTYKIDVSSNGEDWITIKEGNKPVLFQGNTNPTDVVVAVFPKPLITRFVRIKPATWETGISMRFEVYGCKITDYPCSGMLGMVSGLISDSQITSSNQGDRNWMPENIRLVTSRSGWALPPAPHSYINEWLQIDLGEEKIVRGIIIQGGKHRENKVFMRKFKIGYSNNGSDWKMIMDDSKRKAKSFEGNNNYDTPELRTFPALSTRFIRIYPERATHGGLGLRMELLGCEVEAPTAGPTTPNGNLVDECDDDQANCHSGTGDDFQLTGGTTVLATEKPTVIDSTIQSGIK

Kd	Binder
1110 nM	1A03 anti-NRP1 IgG (antibody, V domains shown) VH: EVQLLESGGGLVQPGGSLRLSCAASGFTFSSYYMSWVRQAPGKGLEWVSAISPGSSNKYYADSVQGRFTISRDNSKNTLYLQMNSLRAEDTAVYYCARRKKSFDYWGQGTLVTVSS VL: QSVLTQPPSASGTPGQRVTISCSGPSSNIGNNDVSWYQQLPGTAPKLLIYSDNNRPSGVPDRFSGSKSGTSASLAISGLRSEDEADYYCGAWVASLSAYVFGGGTKLTVL
426 nM	IRCR-101 (3H10) anti-NRP1 IgG (antibody, V domains shown) VH: EVQLLESGGGLVQPGGSLRLSCAASGFTFSSYYMSWVRQAPGKGLEWVSAISPGSSNKYYADSVKGRFTISRDNSKNTLYLQMNSLRAEDTAVYYCARRKYMFDYWGQGTLVTVSS VL: QSVLTQPPSASGTPGQRVTISCTGSSSNIGNNDVYWYQQLPGTAPKLLIYSDSNRPSGVPDRFSGSKSGTSASLAISGLRSEDEADYYCASWDSSLSGYVFGGGTKLTVL
